Test results published in article PMC11187625, “New Labeled PET Analogues Enable the Functional Screening and Characterization of PET-Degrading Enzymes” (ACS Sustainable Chemistry & Engineering, 2024).

Legend:
Assay in all cases: fluorescence, 4-mU release
Assay type in all cases: biochemical, Moraxella sp. TA144
Details in all cases: 0.1 M phosphate pH 7, 30 °C, 5% DMSO
[1] = tested on: CCOCCOC(=O)c1ccc(C(=O)Oc2ccc3c(C)cc(=O)oc3c2)cc1
Text: (§1) fluorescence, 4-mU release on MoPE (polyesterase)

[2] = tested on: COC(=O)c1ccc(C(=O)OCCOC(=O)c2ccc(C(=O)Oc3ccc4c(C)cc(=O)oc4c3)cc2)cc1
Text: as §1

[3] = tested on: COC(=O)c1ccc(C(=O)Oc2ccc3c(C)cc(=O)oc3c2)cc1
Text: as §1

For “MoPE (polyesterase) (Moraxella sp. TA144)”, the Km [1] was 15.6 ± 1.5 µM, the kcat [1] was 0.00014 ± 1e-06 s⁻¹ and the Km [2] was 17.4 ± 2.1 µM. For the same substance, the Km [3] was 1.9 ± 0.1 µM and the kcat [3] was 3e-05 ± 1e-06 s⁻¹.
